Article PMC7299280

Target: SARS-CoV1-SΔ28 (SARS-CoV-1 spike protein truncated at the C terminus, on pseudovirions) (SARS-CoV-1)

CC6.33 (antibody)
neutralization IC50 of SARS-CoV-1 pseudovirus: 0.162 µg/mL
